Assay results as given in article PMC11338831.
Several values for one entry are separate records, joined by “and”; a condition that tells them apart may be missing. Equal entries are not always repeated.

Assays:
[1] = biological target: Solanum lycopersicum (tomato) NRC2, full-length, purified from insect cells (Solanum lycopersicum (tomato)); test: cryo-EM structure; apparently dimeric SlNRC2 specimen, 0.7 mg ml^-1; dimer at 2.84 Å and tetramer at 3.17 Å from one data set, C2 symmetry
[2] = biological target: Solanum lycopersicum (tomato) NRC2, full-length, purified from insect cells (Solanum lycopersicum (tomato)); test: SEC; gel filtration of purified SlNRC2 after removal of MBP; Buffer E (10 mM Tris-HCl pH 8.0, 150 mM NaCl, 1 mM dithiothreitol); Superdex 200 Increase 10/300 GL
[3] = biological target: SlNRC2-Twin-Strep-HA (Solanum lycopersicum (tomato)); test: native gel or EMSA; Blue Native-PAGE (3-12% Bis-Tris) of SlNRC2-Twin-Strep-HA variants eluted from Strep-Tactin XT resin out of nrc2/3/4 N. benthamiana leaf extract; immunoblot

Solanum lycopersicum (tomato) NRC2, full-length, purified from insect cells (natural protein)
stoichiometry N [1]: 2 and 4 | stoichiometry N [2]: 2

SlNRC2-Twin-Strep-HA (natural protein)
stoichiometry N [3]: 2 and 4
